According to the supplement of paper PMC7125110:
± gives the standard error. Variants at the floor of the assay were thinned out.

B1: glmS ribozyme (parent)
chain: AUAAAAGCGCCAGAACUACAGAAAUGUAGUUGACGAGGAGGAGGUUUAUCGAAUUUUCGGCGGAUGCCUCCAAA

Columns and labels:
Conditions in all cases: with glucosamine-6-phosphate
glucosamine-6-phosphate [1] = variants of: B1; test: self-cleavage kobs at 640 uM GlcN6P; higher = faster cleavage; RNA array
Outline: (§1)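 Barcoded ribozyme variants were transcribed in situ on sequenced MiSeq chips by E. coli RNA polymerase. At 37 °C, a hybridised Cy3 probe tracked them while glucosamine-6-phosphate (40 μM to 10 mM) in HEPES/KCl/Mg(OAc)2 buffer flowed in and tiles were imaged over ~14 h. Per-tile medians of signals normalised to baseline and to non-cleaving reference variants were fit to one- or two-exponential decays, giving kobs. kcat and KM came from weighted Michaelis–Menten fits across concentrations.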

glucosamine-6-phosphate [2] = variants of: B1; test: self-cleavage kobs at 2500 uM GlcN6P; higher = faster cleavage; RNA array
Outline: as §1

glucosamine-6-phosphate [3] = variants of: B1; test: self-cleavage kobs at 10000 uM GlcN6P; higher = faster cleavage; RNA array
Outline: as §1

Row | Variant | self-cleavage kobs at 640 uM GlcN6P (glucosamine-6-phosphate [1]) | self-cleavage kobs at 2500 uM GlcN6P (glucosamine-6-phosphate [2]) | self-cleavage kobs at 10000 uM GlcN6P (glucosamine-6-phosphate [3])
1 | A12U A15G C67A | 0.00125 ± 0.00035 s⁻¹ | 0.00634 ± 0.0023 s⁻¹ | –
2 | G7U A64U | < 1e-05 s⁻¹ | – | < 1e-05 s⁻¹
3 | A12G A14G U57A C68A U69G | 0.000246 ± 8e-05 s⁻¹ | 7.01e-05 ± 3.5e-05 s⁻¹ | –
4 | A36U A52G G62C C71A | < 1e-05 s⁻¹ | – | –
5 | G9A C10U C58U | < 1e-05 s⁻¹ | – | –
6 | G32C G51U C70A | 0.000153 ± 5.2e-05 s⁻¹ | – | 7.14e-05 ± 3e-05 s⁻¹
7 | G32A G44U C67U | 0.000148 ± 2.8e-05 s⁻¹ | 0.000244 ± 5.3e-05 s⁻¹ | –
8 | G32U C34G G41C A53U A64C U65G | < 1e-05 s⁻¹ | < 1e-05 s⁻¹ | –
9 | C8G A12U C70U | < 1e-05 s⁻¹ | < 1e-05 s⁻¹ | –
10 | A6G G9A G41U A42U C70A | < 1e-05 s⁻¹ | < 1e-05 s⁻¹ | –
11 | G29C A36C A39C | < 1e-05 s⁻¹ | – | < 1e-05 s⁻¹
12 | G41A A53U U56G G60A | < 1e-05 s⁻¹ | < 1e-05 s⁻¹ | –
13 | C10G C16U A52U U54C G66A | < 1e-05 s⁻¹ | – | –
14 | G35C G37C A39C G63C | < 1e-05 s⁻¹ | < 1e-05 s⁻¹ | –
15 | U30C U49G U55C | < 1e-05 s⁻¹ | – | –
16 | C10A G35A A42U U57G | < 1e-05 s⁻¹ | – | –
17 | A14U A15U G60U C71U | < 1e-05 s⁻¹ | – | < 1e-05 s⁻¹
18 | C11A C50U G59C | < 1e-05 s⁻¹ | < 1e-05 s⁻¹ | –
19 | C11G U49C C68G U69C | < 1e-05 s⁻¹ | – | –
20 | C50G U54C G60C C61G | 0.000234 ± 5.5e-05 s⁻¹ | 8.41e-05 ± 2.8e-05 s⁻¹ | –
21 | C34U C58A G59U | < 1e-05 s⁻¹ | < 1e-05 s⁻¹ | –
22 | A12G G26U G41U U47C C70G | 0.000117 ± 5.2e-05 s⁻¹ | – | –
23 | U30C G59C G63U | < 1e-05 s⁻¹ | – | –

Row | Variant | self-cleavage kobs at 640 uM GlcN6P (glucosamine-6-phosphate [1]) | self-cleavage kobs at 2500 uM GlcN6P (glucosamine-6-phosphate [2]) | self-cleavage kobs at 10000 uM GlcN6P (glucosamine-6-phosphate [3])
24 | C16U A53U G66C | 9.89e-05 ± 2.1e-05 s⁻¹ | 0.000105 ± 2.8e-05 s⁻¹ | 0.000199 ± 5.3e-05 s⁻¹
25 | A48C U55G | 0.000142 ± 3.3e-05 s⁻¹ | 0.00018 ± 7e-05 s⁻¹ | –
26 | C34U G38U U46C U56G G60U | < 1e-05 s⁻¹ | – | –
27 | G38C A42U G63A C68U | < 1e-05 s⁻¹ | – | –
28 | G7C G43U A64U | < 1e-05 s⁻¹ | – | –
29 | C11A G35U C71G | < 1e-05 s⁻¹ | < 1e-05 s⁻¹ | –
30 | G32A G35U U57A | < 1e-05 s⁻¹ | – | –
31 | G7A C8G A14U U65G | < 1e-05 s⁻¹ | < 1e-05 s⁻¹ | < 1e-05 s⁻¹
32 | G60U G66A | < 1e-05 s⁻¹ | < 1e-05 s⁻¹ | –
33 | C10U G29A C34G C50A G63A G66C | < 1e-05 s⁻¹ | – | –
34 | C8G G29A G51C G59U | < 1e-05 s⁻¹ | – | –
35 | G35U G63U U65A | < 1e-05 s⁻¹ | < 1e-05 s⁻¹ | –
36 | A6G A15U G32C U57G G59U | < 1e-05 s⁻¹ | – | –
37 | C10G A33G | < 1e-05 s⁻¹ | – | < 1e-05 s⁻¹
38 | G35A G37A U57A C68A | 0.000784 ± 0.00036 s⁻¹ | – | –
39 | G32C A53C G62C | < 1e-05 s⁻¹ | < 1e-05 s⁻¹ | –
40 | C8U A14G G32U A33C | < 1e-05 s⁻¹ | – | –
41 | A6G C10U A14G C34U U46G U57A | < 1e-05 s⁻¹ | – | –
42 | A6G G13C G32A G66U | < 1e-05 s⁻¹ | < 1e-05 s⁻¹ | –
43 | A33U A39C A48U G59U | < 1e-05 s⁻¹ | – | –
44 | A6U C16U G43U U65G | < 1e-05 s⁻¹ | – | –
45 | G7U A12C U49C | < 1e-05 s⁻¹ | – | –
46 | G38C G60C U65G | < 1e-05 s⁻¹ | – | –

Row | Variant | self-cleavage kobs at 640 uM GlcN6P (glucosamine-6-phosphate [1]) | self-cleavage kobs at 2500 uM GlcN6P (glucosamine-6-phosphate [2]) | self-cleavage kobs at 10000 uM GlcN6P (glucosamine-6-phosphate [3])
47 | A12C A33G G37U | < 1e-05 s⁻¹ | < 1e-05 s⁻¹ | –
48 | A6G C10U U54G | < 1e-05 s⁻¹ | < 1e-05 s⁻¹ | < 1e-05 s⁻¹
49 | C11U U30G U57A C61U | < 1e-05 s⁻¹ | – | –
50 | G13A G35C G51U | < 1e-05 s⁻¹ | – | –
51 | U47C U49C G62A G63A | < 1e-05 s⁻¹ | – | –
52 | C10U A33U A36U G43U A53G C71U | < 1e-05 s⁻¹ | < 1e-05 s⁻¹ | –
53 | G29U A53G U57C C67G U69A | 0.000459 ± 0.00022 s⁻¹ | – | –
54 | G9U G44C G63U | < 1e-05 s⁻¹ | < 1e-05 s⁻¹ | –
55 | U46G U55C C67A | 8.32e-05 ± 1.9e-05 s⁻¹ | 6.57e-05 ± 1.5e-05 s⁻¹ | –
56 | G32C C67G U69G | < 1e-05 s⁻¹ | – | < 1e-05 s⁻¹
57 | A6G U31G A53G | 4.09e-05 ± 1.9e-05 s⁻¹ | 0.000162 ± 3.5e-05 s⁻¹ | –
58 | C11G G37C C68U | 9.13e-05 ± 3.1e-05 s⁻¹ | – | –
59 | G35C G41U A64G | < 1e-05 s⁻¹ | – | –
60 | C10U U30C G40U U55C G60A C71U | < 1e-05 s⁻¹ | – | –
61 | A14U U30C C70G | 9.88e-05 ± 3e-05 s⁻¹ | 8.37e-05 ± 2.2e-05 s⁻¹ | –
62 | U30C G35U C68U | < 1e-05 s⁻¹ | < 1e-05 s⁻¹ | –
63 | U31A C50G C61G | 0.000119 ± 4.7e-05 s⁻¹ | 0.000103 ± 3.8e-05 s⁻¹ | –
64 | A6G G32U G35U G51A | < 1e-05 s⁻¹ | – | –
65 | C10G G66U | < 1e-05 s⁻¹ | < 1e-05 s⁻¹ | < 1e-05 s⁻¹
66 | C10A A36U C68A | 0.000222 ± 9e-05 s⁻¹ | – | –
67 | C16G U54A U65G | 0.000305 ± 0.00011 s⁻¹ | 0.000707 ± 0.00023 s⁻¹ | –
